Results from patent US20220308072A1.

What was measured:
[1] = biological target: Recombinant, his tagged full length human frataxin protein (Abcam ab95502) (human) (UniProt Q16595); test: Simoa sandwich 2-step (120 min-5 min); capture Ab-1; Diluent 1 + 10% NCS; frataxin 333 pg/mL
[2] = biological target: Recombinant, his tagged full length human frataxin protein (Abcam ab95502) (human) (UniProt Q16595); test: Simoa sandwich 3-step; capture Ab-4; frataxin 100 pg/mL
[3] = biological target: Recombinant, his tagged full length human frataxin protein (Abcam ab95502) (human) (UniProt Q16595); test: Simoa sandwich 2-step; capture Ab-2; frataxin 167 pg/mL
[4] = biological target: Recombinant, his tagged full length human frataxin protein (Abcam ab95502) (human) (UniProt Q16595); test: Simoa sandwich 2-step; capture Ab-2; frataxin 18.5 pg/mL
[5] = biological target: Recombinant, his tagged full length human frataxin protein (Abcam ab95502) (human) (UniProt Q16595); test: Simoa sandwich 2-step; capture Ab-4; frataxin 1000 pg/mL
[6] = biological target: Recombinant, his tagged full length human frataxin protein (Abcam ab95502) (human) (UniProt Q16595); test: Simoa sandwich 2-step (120 min-5 min); capture Ab-1; Diluent 1 + 10% NCS
[7] = biological target: Recombinant, his tagged full length human frataxin protein (Abcam ab95502) (human) (UniProt Q16595); test: Simoa sandwich 2-step (120 min-5 min); capture Ab-1; Diluent 1 + 10% NCS; frataxin 200 pg/mL
[8] = biological target: Recombinant, his tagged full length human frataxin protein (Abcam ab95502) (human) (UniProt Q16595); test: Simoa sandwich 2-step (120 min-5 min); capture Ab-1; Diluent 1 + 5% NCS
[9] = biological target: Recombinant, his tagged full length human frataxin protein (Abcam ab95502) (human) (UniProt Q16595); test: Simoa sandwich 3-step; capture Ab-3; frataxin 100 pg/mL
[10] = biological target: Recombinant, his tagged full length human frataxin protein (Abcam ab95502) (human) (UniProt Q16595); test: Simoa sandwich 3-step; capture Ab-4
[11] = biological target: Recombinant, his tagged full length human frataxin protein (Abcam ab95502) (human) (UniProt Q16595); test: Simoa sandwich 2-step (120 min-5 min); capture Ab-1; frataxin 222 pg/mL
[12] = biological target: Recombinant, his tagged full length human frataxin protein (Abcam ab95502) (human) (UniProt Q16595); test: Simoa sandwich 3-step; capture Ab-5; frataxin 1000 pg/mL
[13] = biological target: Recombinant, his tagged full length human frataxin protein (Abcam ab95502) (human) (UniProt Q16595); test: Simoa sandwich 3-step; capture Ab-3
[14] = biological target: Recombinant, his tagged full length human frataxin protein (Abcam ab95502) (human) (UniProt Q16595); test: Simoa sandwich 2-step (120 min-5 min); capture Ab-1; frataxin 2.74 pg/mL
[15] = biological target: Recombinant, his tagged full length human frataxin protein (Abcam ab95502) (human) (UniProt Q16595); test: Simoa sandwich; capture Ab-1; no helper beads
[16] = biological target: Recombinant, his tagged full length human frataxin protein (Abcam ab95502) (human) (UniProt Q16595); test: Simoa sandwich; capture Ab-1; no helper beads; frataxin 18.5 pg/mL
[17] = biological target: Recombinant, his tagged full length human frataxin protein (Abcam ab95502) (human) (UniProt Q16595); test: Simoa sandwich 2-step (120 min-5 min); capture Ab-1; Diluent 1 + 5% NCS; frataxin 2.47 pg/mL
[18] = biological target: Recombinant, his tagged full length human frataxin protein (Abcam ab95502) (human) (UniProt Q16595); test: Simoa sandwich 2-step; capture Ab-1; 150 pM SβG; frataxin 500 pg/mL
[19] = biological target: Recombinant, his tagged full length human frataxin protein (Abcam ab95502) (human) (UniProt Q16595); test: Simoa sandwich 2-step; capture Ab-2; frataxin 55.6 pg/mL
[20] = biological target: Recombinant, his tagged full length human frataxin protein (Abcam ab95502) (human) (UniProt Q16595); test: Simoa sandwich 3-step; capture Ab-4; frataxin 1000 pg/mL
[21] = biological target: Recombinant, his tagged full length human frataxin protein (Abcam ab95502) (human) (UniProt Q16595); test: Simoa sandwich 2-step (120 min-5 min); capture Ab-1
[22] = biological target: Recombinant, his tagged full length human frataxin protein (Abcam ab95502) (human) (UniProt Q16595); test: Simoa sandwich 3-step; capture Ab-5
[23] = biological target: Recombinant, his tagged full length human frataxin protein (Abcam ab95502) (human) (UniProt Q16595); test: Simoa sandwich 2-step (120 min-5 min); capture Ab-1; Diluent 1 + 5% NCS; frataxin 1.37 pg/mL
[24] = biological target: Recombinant, his tagged full length human frataxin protein (Abcam ab95502) (human) (UniProt Q16595); test: Simoa sandwich 2-step; capture Ab-1; 150 pM SβG
[25] = biological target: Recombinant, his tagged full length human frataxin protein (Abcam ab95502) (human) (UniProt Q16595); test: Simoa sandwich 2-step; capture Ab-1; frataxin 6.17 pg/mL
[26] = biological target: Recombinant, his tagged full length human frataxin protein (Abcam ab95502) (human) (UniProt Q16595); test: Simoa sandwich 3-step; capture Ab-2; frataxin 10000 pg/mL
[27] = biological target: Recombinant, his tagged full length human frataxin protein (Abcam ab95502) (human) (UniProt Q16595); test: Simoa sandwich 2-step; capture Ab-1; 50 pM SβG; frataxin 500 pg/mL

Sequence of UniProt Q16595 (Q16595 42-210): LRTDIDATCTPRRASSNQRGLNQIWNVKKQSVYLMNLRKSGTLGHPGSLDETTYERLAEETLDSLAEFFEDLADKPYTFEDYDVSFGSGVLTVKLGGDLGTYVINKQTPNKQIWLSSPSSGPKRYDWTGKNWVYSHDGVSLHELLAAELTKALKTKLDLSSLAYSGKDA

Ab-3, mouse monoclonal [18A5DB1] to Frataxin (Abcam ab110328) (antibody)
Ave AEB [1]: 1.56 AEB
S/B [1]: 145
Ave AEB [2]: 2.79 AEB
S/B [2]: 23.8
Ave AEB [3]: 14.1 AEB
S/B [3]: 148
Ave AEB [4]: 2.15 AEB
S/B [4]: 22.5
Ave AEB [5]: 23.7 AEB
S/B [5]: 193
LOD [6]: 0.323 pg/mL
Ave AEB [7]: 2.03 AEB
S/B [7]: 112
LOD [8]: 0.419 pg/mL
Ave AEB [9]: 0.0152 AEB
S/B [9]: 3.21
LOD [10]: 1.09 pg/mL
AEB rep1 [11]: 1.01 AEB
AEB rep2 [11]: 1.08 AEB
AEB rep3 [11]: 1.04 AEB
Ave AEB [11]: 1.04 AEB
S/B [11]: 127
Ave AEB [12]: 22.9 AEB
S/B [12]: 120
LOD [13]: 11.9 pg/mL
AEB rep1 [14]: 0.0165 AEB
AEB rep2 [14]: 0.0248 AEB
AEB rep3 [14]: 0.0202 AEB
Ave AEB [14]: 0.0205 AEB
S/B [14]: 2.48
Estimated LLOQ [15]: 1.16 pg/mL
LOD [15]: 0.551 pg/mL
AEB Rep1 [16]: 0.363 AEB
AEB Rep2 [16]: 0.362 AEB
Ave AEB [16]: 0.363 AEB
S/B [16]: 16
Ave AEB [17]: 0.0609 AEB
S/B [17]: 3.37
Ave AEB [18]: 23.7 AEB
S/B [18]: 527
Ave AEB [19]: 5.21 AEB
S/B [19]: 54.6
Ave AEB [20]: 17.2 AEB
S/B [20]: 359
LOD [21]: 0.465 pg/mL
LOD [22]: 1.73 pg/mL
Ave AEB [23]: 0.02 AEB
S/B [23]: 1.82
LOD [24]: 0.272 pg/mL
Ave AEB [25]: 0.737 AEB
S/B [25]: 7.1
Ave AEB [26]: 32.2 AEB
S/B [26]: 725
Ave AEB [27]: 13.7 AEB
S/B [27]: 747
